For data set [1] the following is noted: patients, package insert; cited from earlier work.
The conditions of data set [2]: in the human body; cited from earlier work.
The conditions of data set [3]: cited from earlier work.
Data set [4] in a line: HT29 xenograft, bevacizumab-awwb concentration in excised tumors (HPLC). The following applies: Day 3. It is filed as in vivo, athymic nude mice. The procedure: A non-GLP study was conducted (Metis Labs, Ronkonkoma, NY, USA) using Imagent microbubbles, a human monoclonal antibody and ultrasound with a TE7 and P4-2S probe (Mindray North America, New Jersey, USA); settings used were 2.2 MHz frequency, 0.35 and 0.70 mechanical indexes (MI) during insonation, once every 10 seconds, a microbubble destruct pulse of 1.3 MI lasting 1,100 milliseconds was applied. Total insonation time of 5 minutes per animal was used. Imagent was conjugated with bevacizumab-awwb (Mvasi®, Amgen, Thousand Oaks, CA, USA) (“eBev”) in HT29 human colorectal carcinoma model.
Thirty-six athymic nude mice (The Jackson Laboratory, Bar Harbor, ME, USA) were randomized into 9 groups of 4 mice and once tumor volumes reached ~200 mm^3, the mice were treated once on day 1. Animals were euthanized on Day 3. The bevacizumab-awwb (either eBev or free bevacizumab-awwb) dose was 100 μL of either a 25:1, 50:1, or 5:1 dilution, depending on the experimental arm, via intravenous administration (i.v.) via jugular vein catheter (Instech One Channel Mouse Button, Instech, Plymouth Meeting, PA, USA). […]

For the compound “Avastin: recombinant humanized monoclonal IgG1 antibody, vascular endothelial growth factor inhibitor”, in data set [1], the “Grade 3-5 hemorrhagic events” value is on record as 0.4-7.0%, the “Grades 3-4 hypertension” value is listed as 5-18%, the “Grades 3-5 Arterial Thromboembolic Events” value is on record as 5% and the gastrointestinal perforations was 0.3-3.0%. Also, in data set [1], the ovarian failure is recorded as 34% and the proteinuria is 20%.

As to `O=C1[O][Pt]2([NH][C@@H]3CCCC[C@H]3[NH]2)[O]C1=O` [Oxaliplatin], the half-life entry in data set [2] is on record as “about 14 minutes”.

`FC(F)(F)C(F)(F)C(F)(F)C(F)(F)C(F)(F)C(F)(F)F` [Perfluorohexane]: in data set [3], the “water solubility, times lower than octafluoropropane” value is reported as 704 times and the “water solubility, times lower than sulfur hexafluoride” value is 1,000 times.

Turning to “bevacizumab-awwb: bevacizumab-awwb (Mvasi, Amgen), human monoclonal antibody”, the “mean concentration of bevacizumab-awwb as measured in the tumors” value in data set [4] (Group 2: free bevacizumab-awwb only, 25:1 dilution, i.v.) is “around 3 μg”; in data set [4] (Groups 3a-3d: free bevacizumab-awwb 25:1 co-administered with Imagent microbubbles + ultrasound), “around 3 μg”.

These data come from US12714676B2, “Compositions and methods for targeted delivery of therapeutics using carriers” (VESSELON, INC., priority 2020, dated 2026).
